Results from patent publication US12365732 (23ANDME, dated 2025).

T1: hu-CD96 isoform 2 on CHO cells (human, UniProt P40200 22-585)
T1 construct: also called CHO-CD96 (isoform 2); CD96-CHOs
T1 sequence: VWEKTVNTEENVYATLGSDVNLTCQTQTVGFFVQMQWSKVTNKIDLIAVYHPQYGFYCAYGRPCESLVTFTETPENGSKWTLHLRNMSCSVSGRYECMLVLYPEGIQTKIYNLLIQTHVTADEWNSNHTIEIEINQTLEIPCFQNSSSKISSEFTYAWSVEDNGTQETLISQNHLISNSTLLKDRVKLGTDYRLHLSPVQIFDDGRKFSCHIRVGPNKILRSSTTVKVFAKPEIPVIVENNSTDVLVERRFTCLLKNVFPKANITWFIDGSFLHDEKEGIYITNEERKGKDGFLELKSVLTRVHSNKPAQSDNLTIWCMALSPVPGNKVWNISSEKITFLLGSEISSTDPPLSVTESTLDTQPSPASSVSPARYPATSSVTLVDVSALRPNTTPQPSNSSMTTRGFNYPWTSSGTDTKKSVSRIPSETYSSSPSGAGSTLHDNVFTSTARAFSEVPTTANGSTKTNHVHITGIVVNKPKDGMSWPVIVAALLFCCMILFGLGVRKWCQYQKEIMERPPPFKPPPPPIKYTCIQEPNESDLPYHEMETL


Assays:
[1] = molecular target: T1, hu-CD96 isoform 2 on CHO cells; assay: FACS, CD155-Fc-FLAG 10 nM, Ab 0.8 nM
Procedure: CHO cells stably expressing isoform 2 of hu-CD96 (Origene, catalog #RC221005) were incubated with anti-CD96 antibodies for 20 minutes at 4° C. The cells were washed, and then incubated with 10 nM human CD155-Fc-FLAG for 30 minutes at 4° C. Cells were washed, and then human CD155-Fc-FLAG binding was detected by incubation with anti-FLAG-APC (Columbia Biosciences, catalog #D3-1718-1MG) for 20 minutes at 4° C. Cell binding was analyzed by flow cytometry with a CytoFLEX (Beckman Coulter). CD155 binding is represented as median fluorescence intensity (MedFI).
As shown in Table 20 (below), the anti-CD96 antibodies, mAb1.v7.NGS8, mAb1.v7.NGS9, mAb1.v7.NGS10, mAb1.v7.NGS11, and h10G1 inhibited soluble hu-CD155 binding to CD96-expressing CHO cells dose-dependently and potently. The antibody NK92.39 (Fuchs et al., 2004; Biolegend catalog #338405) inhibited receptor binding similarly.

[2] = molecular target: T2, hu-CD96 Fc (human, biotinylated in Table 16); assay: SPR 37C, biotin-CD96-Fc captured, IgG analyte
T2 construct: also called biotinylated hu-CD96-Fc
Procedure: (§1) Briefly, a 1:4 dilution of Biotin CAPture Reagent (GE Healthcare) into HBS-EP buffer (0.01 M HEPES pH 7.4, 0.15 M NaCl, 3 mM EDTA, 0.005% Surfactant P20) was applied to the chip at 2 µL/min flow rate. For the kinetics measurements, 20 nM biotinylated hu-CD96-Fc and cy-CD96-Fc was captured at 10 µL/min to achieve ~50 response units in the second flow cell (FC2). FC1 was kept as a reference. Next, 4-fold serial dilutions of IgG in HBS-P buffer (0.01 M HEPES pH 7.4, 0.15 M NaCl, 0.005% surfactant P20) from low (3.125 nM) to high (200 nM) concentration were injected (flow rate: 10 µL/min) at 37° C. The sensorgram was recorded and subject to reference and buffer subtraction before evaluating by BIACORE® 8K Evaluation Software (version 1.1.1.7442). Association rates ($kon$) and dissociation rates ($koff$) were calculated using a simple one-to-one Langmuir binding model. The equilibrium dissociation constant (K_D) value was calculated as the ratio of $koff/kon$.

[3] = molecular target: T3, cy-CD96 Fc (cynomolgus monkey, biotinylated in Table 16); assay: SPR 37C, biotin-CD96-Fc captured, IgG analyte
T3 construct: also called biotinylated cy-CD96-Fc
Procedure: as §1

[4] = molecular target: hu-CD96D1 D3-hFc (human); assay: ELISA, coated CD96D1D3-hFc
Procedure: (§2) CD96 binding of purified hybridoma antibodies: The hu-CD96 and cy-CD96 antigen binding ELISA was performed on the purified hybridoma antibodies. Briefly, 96-well MAXISORP® flat bottom plates (Thermo Fisher Scientific, Waltham, MA; Cat #439454) were coated overnight at 4° C. with 0.5 µg/mL of hu-CD96D1 D3-hFc and cynomolgus monkey CD96D1 D3-hFc in PBS. After removing the coating solution, unspecific binding was blocked by PBS containing 1% bovine serum albumin (blocking buffer) and incubation at room temperature for one hour. Plates were then washed three times with PBS and 0.05% TWEEN®-20 (wash buffer). Serial dilution of purified antibodies in PBS containing 0.5% BSA and 0.05% Tween 20 (ELISA buffer) was added to individual wells followed by incubation at room temperature for one hour with agitation. Plates were washed three times with wash buffer, then 100 µL/well of anti-mouse IgG-HRP (Thermo Fisher Scientific, Waltham, MA; Cat #626520) in ELISA buffer was added. […] Enzymatic color development was stopped with 50 µL/well of TMB stop solution (VWR/Avantor, Radnor, PA, USA; Cat #95059-200). Plates were analyzed with a SpectraMax i3X plate reader (Molecular Devices LLC, San Jose, CA, USA) at 450 nm.

[5] = molecular target: T4, cynomolgus monkey CD96D1 D3-hFc (cynomolgus monkey); assay: ELISA, coated CD96D1D3-hFc
T4 construct: also called cy-CD96D1 D3
Procedure: as §2

Row | Binder | CD155-Fc binding (MedFI) [1] [MedFI] | Kd [2] [nM] | koff [2] [s⁻¹] | kon [2] [M⁻¹ s⁻¹] | Kd [3] [nM] | koff [3] [s⁻¹] | kon [3] [M⁻¹ s⁻¹] | EC50 [4] [nM] | EC50 [5] [nM] | binding result [5]
1 | h10G1 IgG (humanized 10G1) (antibody, V domains shown, human IgG1 N297G) VH: EIQLVQSGSELKKPGASVKVSCKASGYPFTTYGMSWVRQAPGQGLEWMGWINTDSGVPTYADDFKGRFVFSLDTSVSTAYLQISSLKAEDTAVYFCARNIYYGWGNFDYWGQGTLVTVSS VL: EIVMTQSPDFQSVTPKEKVTITCRASQDIYRNLHWYQQKPDQTPKLLIKHASDSISGIPSRFSGSGSGTDFTLTINSLEAEDAAAYYCLQGYSMPYTFGGGTKVEIKG | 5870 | 0.64 | 0.000393 | 612000 | 1.13 | 0.00789 | 6.99e+06 | – | – | –
2 | 10G1 (clone 10G1.3G8), purified hybridoma antibody (antibody, V domains shown, murine hybridoma IgG) VH: QIQLVQSGPELKKPGETVKISCKASGYPFTTYGMSWVKQAPGKGLKWMGWINTDSGVPTYADDFKGRFAFSLETSANTAYLQINSLKNEDAATYFCARNIYYGWGNFDYWGQGTILTVSS VL: DILMTQSPTTLSVTPGETVSLSCRASQDIYRNLHWYQQKSQGTPRLLIKHASDSISGIPSRFTGSGSGTDFTLSINSVKPEDEGIYYCLQGYSMPYTFGGGTKLEIK | – | – | – | – | – | – | – | 0.03 | 0.2 | –
3 | mAb1.v7.NGS9 IgG (antibody, V domains shown, human IgG1 N297G) VH: EVQLVQSGAEVKKPGASVKVSCKASGFTFTNNFMHWVRQAPGQGLEWIGMIHANSGITNINEKFKNRVTMTTDTSTSTAYMELRSLRSEDTAVYYCRSDGVYEGYFDYWGQGTLVTVSS VL: DIQLTQSPSSLSASVGDRVTITCKASQNVGTAIVWYQQKPGKAPKVLIYSASTRYTGVPSRFSGSGSGTDFTLTISSLQPEDFATYYCQQYSSSPLTFGQGTKVEIKG | 32200 | 0.2 | 5.42e-05 | 266000 | 2.88 | 0.000734 | 255000 | – | – | –
4 | mAb1.v7.NGS11 IgG (antibody, V domains shown, human IgG1 N297G) VH: EVQLVQSGAEVKKPGASVKVSCKASGFTFTNNFMHWVRQAPGQGLEWIGFIHANSGITNINEKFKNRVTMTTDTSTSTAYMELRSLRSEDTAVYYCRSDGVYEGYFDYWGQGTLVTVSS VL: DIQLTQSPSSLSASVGDRVTITCKASQNVGTAIVWYQQKPGKAPKVLIYSASTRYTGVPSRFSGSGSGTDFTLTISSLQPEDFATYYCQQYSSSPLTFGQGTKVEIKG | 23600 | 0.08 | 1.38e-05 | 173000 | 1.52 | 0.000513 | 338000 | – | – | –
5 | mAb1.v7.NGS10 IgG (antibody, V domains shown, human IgG1 N297G) VH: EVQLVQSGAEVKKPGASVKVSCKASGFTFTNNFMHWVRQAPGQGLEWIGFIHANSGITNINEKFKNRVTMTTDTSTSTAYMELRSLRSEDTAVYYCRSDGIYEGYFDYWGQGTLVTVSS VL: DIQLTQSPSSLSASVGDRVTITCKASQNVGTAIVWYQQKPGKAPKVLIYSASTRYTGVPSRFSGSGSGTDFTLTISSLQPEDFATYYCQQYSSSPLTFGQGTKVEIKG | 23600 | 0.01 | 1.84e-06 | 144000 | 0.49 | 0.000374 | 767000 | – | – | –
6 | 9H4, purified hybridoma antibody (antibody, V domains shown, murine hybridoma IgG) VH: EVQLLETGGGLVKSGGSLKLSCAASGFTFSDYYMYWVRQTPEKRLEWVAAISDDGTYTYYPDSVKGRFTISRDNANNYLYLQMSSLKSEDTAIYYCAKAGSYDYFDVWGAGTTVTVSS VL: DIVLTQSPASLAVSLGQRAIISCKASQSVTFADTGLMHWYQQKPGQQPKLLIYRASNLEVGVPTRFSGSGSGTDFTLNIHPVEEEDVATYYCQQSREYPWTFGGGTKLEIK | – | – | – | – | – | – | – | 0.24 | – | no binding
7 | 7E5, purified hybridoma antibody (antibody, V domains shown, murine hybridoma IgG) VH: QVQLKESGPGLVAPSQSLSIICTVSGFSLTNYGIHWIRQPPGKGLEWLGIIWAGGSTNYNSALMSRLTISKDNSKSQVFLKMNSLQTNDTAIYYCARVSMMGFAYWGQGTLVTVSA VL: QAVVTQESALTTSPGETVTLTCRSSTGAVTTSNYANWVQEKPDHLFTGLIGGTNNRAPGVPARFSGSLIGDKAALTITGAQTEDEAIYFCSLWYGSHWVFGGGTKLTVL | – | – | – | – | – | – | – | 0.06 | 0.53 | –
